Data as given in the Human Domainome abundance scans (Beltran et al. 2025).
± gives the uncertainty stated by the source.

B1: LIM and senescent cell antigen-like-containing domain protein 2, residues 13 to 71; numbered along this chain, Q7Z4I7 (parent)
chain: AVCQRCQARFSPAERIVNSNGELYHEHCFVCAQCFRPFPEGLFYEFEGRKYCEHDFQML

Variants of: B1
Test: abundance fitness (aPCA) (normalised: wild type 0, dead -1); higher = more abundant; growth selection in yeast, the domain comes from the species named
Details: Homo sapiens

| Variant | abundance fitness |
| --- | --- |
| AVCQRCQARFSPAERIVNSNGELGHEHCFVCAQCFRPFPEGLFYEFEGRKYCEHDFQML [Y24G] | -0.238 ± 0.047 |
| AVCQRCQARFSPAERIVNSNGELHHEHCFVCAQCFRPFPEGLFYEFEGRKYCEHDFQML [Y24H] | -0.16 ± 0.078 |
| AVCQRCQARFSPAERIVNSNGELIHEHCFVCAQCFRPFPEGLFYEFEGRKYCEHDFQML [Y24I] | -0.137 ± 0.062 |
| AVCQRCQARFSPAERIVNSNGELEHEHCFVCAQCFRPFPEGLFYEFEGRKYCEHDFQML [Y24E] | -0.303 ± 0.069 |
| AVCQRCQARFSPAERIVNSNGELVHEHCFVCAQCFRPFPEGLFYEFEGRKYCEHDFQML [Y24V] | -0.072 ± 0.054 |
| AVCQRCQARFSPAERIVNSNGELDHEHCFVCAQCFRPFPEGLFYEFEGRKYCEHDFQML [Y24D] | -0.444 ± 0.1 |
| AVCQRCQARFSPAERIVNSNGELLHEHCFVCAQCFRPFPEGLFYEFEGRKYCEHDFQML [Y24L] | -0.057 ± 0.037 |
| AVCQRCQARFSPAERIVNSNGELQHEHCFVCAQCFRPFPEGLFYEFEGRKYCEHDFQML [Y24Q] | -0.282 ± 0.068 |
| AVCQRCQARFSPAERIVNSNGELWHEHCFVCAQCFRPFPEGLFYEFEGRKYCEHDFQML [Y24W] | -0.123 ± 0.049 |
| AVCQRCQARFSPAERIVNSNGELFHEHCFVCAQCFRPFPEGLFYEFEGRKYCEHDFQML [Y24F] | 0.007 ± 0.057 |
| AVCQRCQARFSPAERIVNSNGELNHEHCFVCAQCFRPFPEGLFYEFEGRKYCEHDFQML [Y24N] | -0.474 ± 0.11 |
| AVCQRCQARFSPAERIVNSNGELCHEHCFVCAQCFRPFPEGLFYEFEGRKYCEHDFQML [Y24C] | -0.116 ± 0.055 |
| AVCQRCQARFSPAERIVNSNGELTHEHCFVCAQCFRPFPEGLFYEFEGRKYCEHDFQML [Y24T] | -0.232 ± 0.054 |
| AVCQRCQARFSPAERIVNSNGELKHEHCFVCAQCFRPFPEGLFYEFEGRKYCEHDFQML [Y24K] | -0.257 ± 0.061 |
| AVCQRCQARFSPAERIVNSNGELYPEHCFVCAQCFRPFPEGLFYEFEGRKYCEHDFQML [H25P] | -0.752 ± 0.1 |
| AVCQRCQARFSPAERIVNSNGELYDEHCFVCAQCFRPFPEGLFYEFEGRKYCEHDFQML [H25D] | -0.96 ± 0.27 |
| AVCQRCQARFSPAERIVNSNGELYGEHCFVCAQCFRPFPEGLFYEFEGRKYCEHDFQML [H25G] | -0.832 ± 0.14 |
| AVCQRCQARFSPAERIVNSNGELYAEHCFVCAQCFRPFPEGLFYEFEGRKYCEHDFQML [H25A] | -0.918 ± 0.14 |
| AVCQRCQARFSPAERIVNSNGELYMEHCFVCAQCFRPFPEGLFYEFEGRKYCEHDFQML [H25M] | -0.856 ± 0.1 |
| AVCQRCQARFSPAERIVNSNGELYLEHCFVCAQCFRPFPEGLFYEFEGRKYCEHDFQML [H25L] | -0.668 ± 0.06 |
| AVCQRCQARFSPAERIVNSNGELYFEHCFVCAQCFRPFPEGLFYEFEGRKYCEHDFQML [H25F] | -0.895 ± 0.16 |
| AVCQRCQARFSPAERIVNSNGELYIEHCFVCAQCFRPFPEGLFYEFEGRKYCEHDFQML [H25I] | -0.972 ± 0.18 |
| AVCQRCQARFSPAERIVNSNGELYREHCFVCAQCFRPFPEGLFYEFEGRKYCEHDFQML [H25R] | -0.784 ± 0.083 |

| Variant | abundance fitness |
| --- | --- |
| AVCQRCQARFSPAERIVNSNGELYCEHCFVCAQCFRPFPEGLFYEFEGRKYCEHDFQML [H25C] | 0.048 ± 0.095 |
| AVCQRCQARFSPAERIVNSNGELYKEHCFVCAQCFRPFPEGLFYEFEGRKYCEHDFQML [H25K] | -0.929 ± 0.15 |
| AVCQRCQARFSPAERIVNSNGELYQEHCFVCAQCFRPFPEGLFYEFEGRKYCEHDFQML [H25Q] | -0.987 ± 0.17 |
| AVCQRCQARFSPAERIVNSNGEIYHEHCFVCAQCFRPFPEGLFYEFEGRKYCEHDFQML [L23I] | 0.078 ± 0.12 |
| AVCQRCQARFSPAERIVNSNGEEYHEHCFVCAQCFRPFPEGLFYEFEGRKYCEHDFQML [L23E] | -0.18 ± 0.065 |
| AVCQRCQARFSPAERIVNSNGEFYHEHCFVCAQCFRPFPEGLFYEFEGRKYCEHDFQML [L23F] | -0.082 ± 0.1 |
| AVCQRCQARFSPAERIVNSNGEKYHEHCFVCAQCFRPFPEGLFYEFEGRKYCEHDFQML [L23K] | -0.013 ± 0.055 |
| AVCQRCQARFSPAERIVNSNGEHYHEHCFVCAQCFRPFPEGLFYEFEGRKYCEHDFQML [L23H] | 0.238 ± 0.088 |
| AVCQRCQARFSPAERIVNSNGEDYHEHCFVCAQCFRPFPEGLFYEFEGRKYCEHDFQML [L23D] | -0.106 ± 0.12 |
| AVCQRCQARFSPAERIVNSNGETYHEHCFVCAQCFRPFPEGLFYEFEGRKYCEHDFQML [L23T] | -0.009 ± 0.048 |
| AVCQRCQARFSPAERIVNSNGESYHEHCFVCAQCFRPFPEGLFYEFEGRKYCEHDFQML [L23S] | -0.003 ± 0.045 |
| AVCQRCQARFSPAERIVNSNGEMYHEHCFVCAQCFRPFPEGLFYEFEGRKYCEHDFQML [L23M] | 0.067 ± 0.051 |
| AVCQRCQARFSPAERIVNSNGEWYHEHCFVCAQCFRPFPEGLFYEFEGRKYCEHDFQML [L23W] | -0.168 ± 0.055 |
| AVCQRCQARFSPAERIVNSNGENYHEHCFVCAQCFRPFPEGLFYEFEGRKYCEHDFQML [L23N] | -0.076 ± 0.11 |
| AVCQRCQARFSPAERIVNSNGECYHEHCFVCAQCFRPFPEGLFYEFEGRKYCEHDFQML [L23C] | -0.185 ± 0.091 |
| AVCQRCQARFSPAERIVNSNGEPYHEHCFVCAQCFRPFPEGLFYEFEGRKYCEHDFQML [L23P] | 0.027 ± 0.054 |
| AVCQRCQARFSPAERIVNSNGEGYHEHCFVCAQCFRPFPEGLFYEFEGRKYCEHDFQML [L23G] | -0.2 ± 0.052 |
| AVCQRCQARFSPAERIVNSNGEYYHEHCFVCAQCFRPFPEGLFYEFEGRKYCEHDFQML [L23Y] | 0.186 ± 0.1 |
| AVCQRCQARFSPAERIVNSNGERYHEHCFVCAQCFRPFPEGLFYEFEGRKYCEHDFQML [L23R] | 0.017 ± 0.037 |
| AVCQRCQARFSPAERIVNSNGEQYHEHCFVCAQCFRPFPEGLFYEFEGRKYCEHDFQML [L23Q] | 0.123 ± 0.051 |
| AVCQRCQARFSPAERIVNSNGEAYHEHCFVCAQCFRPFPEGLFYEFEGRKYCEHDFQML [L23A] | 0.001 ± 0.052 |
| AVCQRCQARFSPAERIVNSQGELYHEHCFVCAQCFRPFPEGLFYEFEGRKYCEHDFQML [N20Q] | -0.116 ± 0.11 |
